Experimental findings from the Immune Epitope Database (IEDB) are described below.

The target in one assay is HLA-A*11:01. Kind of assay: IEDB peptide-MHC binding, purified MHC/competitive/radioactivity; filed as Kd, often an IC50 or EC50 that approximates it; ≥ and ≤ were set here for values at or beyond the usual limits of such assays.
A further assay addresses HLA-A*02:01. The assay is described as above.
Where [1] appears, read: source organism: Mammarenavirus choriomeningitidis.
Setting [2] is: source organism: Mammarenavirus brazilense.

The term Kd denotes the free concentration of one partner at which half of the binding sites on the other are occupied at equilibrium, for simple one-to-one binding.

TTYLGPLSCK: the Kd with HLA-A*11:01 (setting [1]) was 2.8 nM. Turning to STYYVHENK, the Kd with HLA-A*11:01 (setting [2]) worked out at 6 nM. LVTFLLLCGR: the Kd in the assay with HLA-A*11:01 (source organism: Mammarenavirus lassaense) was at least 5000 nM.

Turning to GLSQFTQTV, the Kd with HLA-A*02:01 (source organism: Mammarenavirus juninense) amounted to 30 nM. As to KCLNIMLGK, the dissociation constant Kd with HLA-A*11:01 (setting [2]) was 678 nM.

As for AQPGLLSYV, the Kd with HLA-A*02:01 (source organism: Mammarenavirus guanaritoense) was 161 nM. As to SSQRDTILK, the Kd with HLA-A*11:01 (setting [2]) worked out at 9.3 nM. In the case of LVSFLLLAGR, in the assay with HLA-A*11:01 (setting [1]), the Kd turned out to be 70 nM. Take FTNDSIISH: the Kd with HLA-A*11:01 (setting [1]) amounted to 38 nM. Regarding SIQKNTIFK, the Kd in the assay with HLA-A*11:01 (source organism: Mammarenavirus machupoense) was 5.5 nM. As to SSIIRSLPK, in the assay with HLA-A*11:01 (source organism: Mammarenavirus whitewaterense), the Kd worked out at 2.5 nM.
